Assay results reported in patent publication US20250340635A1 (HEFEI TG IMMUNOPHARMA, published 2025).

Biological target: T1, cynomolgus monkey-His fusion protein (cynomolgus monkey, UniProt Q95JB9 22-257)
T1 construct: extracellular domain; also called cynomolgus monkey NKp46; monkey NKp46; not shown: His tag
Test: not described at this place ("Validation has shown"); Jeru4602 was tested by ELISA on coated cynomolgus NKp46-His in Example 7
Experimental: The binding characteristics of the humanized 10D10 antibody prepared in Example 6 was detected using the ELISA assay. The NKp46 extracellular region His tag fusion protein (NKp46-His) was coated into a 96-well plate. The signal intensity after antibody addition was used to determine the binding characteristics of the antibody to NKp46. The specific steps were as follows:
The human NKp46-His fusion protein and cynomolgus monkey-His fusion protein (for specific sources, see Example 2) were diluted to 1 μg/mL with PBS buffer, added to a 96-well plate at 100 μL/well and left overnight at 4° C. The PBS buffer solution was removed from the 96-well plate. The plate was washed 6 times with PBST (pH 7.2, PBS containing 0.1% Tween 20) buffer solution. PBS/10% BSA was added at 200 μL/well and incubated at 37° C. for 2 hours for blocking. The blocking solution was removed. The plate was washed 6 times with PBST. […] The absorbance at […] was read with a microplate reader.

T1 sequence (Q95JB9 22-257): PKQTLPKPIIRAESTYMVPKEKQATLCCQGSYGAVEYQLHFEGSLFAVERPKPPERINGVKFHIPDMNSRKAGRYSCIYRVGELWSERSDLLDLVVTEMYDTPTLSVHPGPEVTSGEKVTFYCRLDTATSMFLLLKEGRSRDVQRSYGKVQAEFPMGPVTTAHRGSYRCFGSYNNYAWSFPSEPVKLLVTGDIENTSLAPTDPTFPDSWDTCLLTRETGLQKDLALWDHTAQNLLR

B1: Jeru4602 (antibody, human IgG1, kappa, L234A L235A, V domains shown)
VH: QVTLKESGPGILQPSQTLSLTCSFSGFSLSTYGIGVGWNRQPSGKGLEWLAHIWWNDNEYYNIDLKSRLTISKDTSNNQVFLKIASVDTADTATYYCVRGNYRYARGYVMDYWGQGTSVTVSS
VL: DIVLTQSPASLAVSLGQRATISCRASESVEYYGTSLMQWYQQKPGQPPKLLIYAASNVESGVPARFSGSGSGTDFSLNIHPVEEDDFAMYFCQQNRKVPWTFGGGTKLEIKR
notes: also called control antibody 2; NKp46 antibody disclosed in U.S. Ser. No. 10/716,864
Does B1 bind?
Result: no binding
